Consider two molecules from publication doi:10.1101/2021.01.04.424714 (bioRxiv, 2021).

B1: bacteriophage T7 gp15 core protein (natural protein, UniProt P03725 1-747, looked up)
chain: MSKIESALQAAQPGLSRLRGGAGGMGYRAATTQAEQPRSSLLDTIGRFAKAGADMYTAKEQRARDLADERSNEIIRKLTPEQRREALNNGTLLYQDDPYAMEALRVKTGRNAAYLVDDDVMQKIKEGVFRTREEMEEYRHSRLQEGAKVYAEQFGIDPEDVDYQRGFNGDITERNISLYGAHDNFLSQQAQKGAIMNSRVELNGVLQDPDMLRRPDSADFFEKYIDNGLVTGAIPSDAQATQLISQAFSDASSRAGGADFLMRVGDKKVTLNGATTTYRELIGEEQWNALMVTAQRSQFETDAKLNEQYRLKINSALNQEDPRTAWEMLQGIKAELDKVQPDEQMTPQREWLISAQEQVQNQMNAWTKAQAKALDDSMKSMNKLDVIDKQFQKRINGEWVSTDFKDMPVNENTGEFKHSDMVNYANKKLAEIDSMDIPDGAKDAMKLKYLQADSKDGAFRTAIGTMVTDAGQEWSAAVINGKLPERTPAMDALRRIRNADPQLIAALYPDQAELFLTMDMMDKQGIDPQVILDADRLTVKRSKEQRFEDDKAFESALNASKAPEIARMPASLRESARKIYDSVKYRSGNESMAMEQMTKFLKESTYTFTGDDVDGDTVGVIPKNMMQVNSDPKSWEQGRDILEEARKGIIASNPWITNKQLTMYSQGDSIYLMDTTGQVRVRYDKELLSKVWSENQKKLEEKAREKALADVNKRAPIVAATKAREAAAKRVREKRKQTPKFIYGRKE
B2: bacteriophage T7 gp16 core protein (natural protein, UniProt P03726 1-1318, looked up)
chain: MDKYDKNVPSDYDGLFQKAADANGVSYDLLRKVAWTESRFVPTAKSKTGPLGMMQFTKATAKALGLRVTDGPDDDRLNPELAINAAAKQLAGLVGKFDGDELKAALAYNQGEGRLGNPQLEAYSKGDFASISEEGRNYMRNLLDVAKSPMAGQLETFGGITPKGKGIPAEVGLAGIGHKQKVTQELPESTSFDVKGIEQEATAKPFAKDFWETHGETLDEYNSRSTFFGFKNAAEAELSNSVAGMAFRAGRLDNGFDVFKDTITPTRWNSHIWTPEELEKIRTEVKNPAYINVVTGGSPENLDDLIKLANENFENDSRAAEAGLGAKLSAGIIGAGVDPLSYVPMVGVTGKGFKLINKALVVGAESAALNVASEGLRTSVAGGDADYAGAALGGFVFGAGMSAISDAVAAGLKRSKPEAEFDNEFIGPMMRLEARETARNANSADLSRMNTENMKFEGEHNGVPYEDLPTERGAVVLHDGSVLSASNPINPKTLKEFSEVDPEKAARGIKLAGFTEIGLKTLGSDDADIRRVAIDLVRSPTGMQSGASGKFGATASDIHERLHGTDQRTYNDLYKAMSDAMKDPEFSTGGAKMSREETRYTIYRRAALAIERPELQKALTPSERIVMDIIKRHFDTKRELMENPAIFGNTKAVSIFPESRHKGTYVPHVYDRHAKALMIQRYGAEGLQEGIARSWMNSYVSRPEVKARVDEMLKELHGVKEVTPEMVEKYAMDKAYGISHSDQFTNSSIIEENIEGLVGIENNSFLEARNLFDSDLSITMPDGQQFSVNDLRDFDMFRIMPAYDRRVNGDIAIMGSTGKTTKELKDEILALKAKAEGDGKKTGEVHALMDTVKILTGRARRNQDTVWETSLRAINDLGFFAKNAYMGAQNITEIAGMIVTGNVRALGHGIPILRDTLYKSKPVSAKELKELHASLFGKEVDQLIRPKRADIVQRLREATDTGPAVANIVGTLKYSTQELAARSPWTKLLNGTTNYLLDAARQGMLGDVISATLTGKTTRWEKEGFLRGASVTPEQMAGIKSLIKEHMVRGEDGKFTVKDKQAFSMDPRAMDLWRLADKVADEAMLRPHKVSLQDSHAFGALGKMVMQFKSFTIKSLNSKFLRTFYDGYKNNRAIDAALSIITSMGLAGGFYAMAAHVKAYALPKEKRKEYLERALDPTMIAHAALSRSSQLGAPLAMVDLVGGVLGFESSKMARSTILPKDTVKERDPNKPYTSREVMGAMGSNLLEQMPSAGFVANVGATLMNAAGVVNSPNKATEQDFMTGLMNSTKELVPNDPLTQQLVLKIYEANGVNLRERRK

Data set [1] concerns the molecule itself. The data set can be described thus: AUC + other: dynamic light scattering.
The target in data set [2] is B1. The data set can be described thus: AUC.

Regarding B1, the stoichiometry N (usually a count of units in the complex or per binding partner) in data set [1] is 6.

As for B2, the “stoichiometry N” value in data set [2] is 6 gp16 monomers per gp15 hexamer.
